Measured values taken from paper PMC3166298, “Phosphorylation Alters the Interaction of the Arabidopsis Phosphotransfer Protein AHP1 with Its Sensor Kinase ETR1” (PLoS ONE, 2011).

B1: ethylene receptor ethylene response 1 (ETR1), wild type (receptor, Arabidopsis, UniProt P49333 1-738, looked up)
chain: MEVCNCIEPQWPADELLMKYQYISDFFIAIAYFSIPLELIYFVKKSAVFPYRWVLVQFGAFIVLCGATHLINLWTFTTHSRTVALVMTTAKVLTAVVSCATALMLVHIIPDLLSVKTRELFLKNKAAELDREMGLIRTQEETGRHVRMLTHEIRSTLDRHTILKTTLVELGRTLALEECALWMPTRTGLELQLSYTLRHQHPVEYTVPIQLPVINQVFGTSRAVKISPNSPVARLRPVSGKYMLGEVVAVRVPLLHLSNFQINDWPELSTKRYALMVLMLPSDSARQWHVHELELVEVVADQVAVALSHAAILEESMRARDLLMEQNVALDLARREAETAIRARNDFLAVMNHEMRTPMHAIIALSSLLQETELTPEQRLMVETILKSSNLLATLMNDVLDLSRLEDGSLQLELGTFNLHTLFREVLNLIKPIAVVKKLPITLNLAPDLPEFVVGDEKRLMQIILNIVGNAVKFSKQGSISVTALVTKSDTRAADFFVVPTGSHFYLRVKVKDSGAGINPQDIPKIFTKFAQTQSLATRSSGGSGLGLAISKRFVNLMEGNIWIESDGLGKGCTAIFDVKLGISERSNESKQSGIPKVPAIPRHSNFTGLKVLVMDENGVSRMVTKGLLVHLGCEVTTVSSNEECLRVVSHEHKVVFMDVCMPGVENYQIALRIHEKFTKQRHQRPLLVALSGNTDKSTKEKCMSFGLDGVLLKPVSLDNIRDVLSDLLEPRVLYEGM
notes: Solubilised in beta-D-dodecylmaltoside; also called sensor kinase ETR1; AtETR1

Columns and labels:
[1] = biological target: the molecule itself; experiment: fluorescence polarisation; Perrin plot of 2 uM ETR1 together with 0.2 uM dansylated AHP1; 0.2 M potassium phosphate pH 8.0, 0.05% beta-D-dodecylmaltoside, 10 mM beta-cyclodextrin; 5-25 C; apparent molecular weight
[2] = biological target: B1; experiment: as above; details: both partners purified
[3] = biological target: B1; experiment: fluorescence polarisation; wild type ETR1 pre-incubated with 0.1 mM copper chloride, added to wild type AHP1-GFP; with 100 uM ethephon; 50 mM Tris-HCl pH 7.5, 100 mM KCl, 0.1% beta-D-dodecylmaltoside, 0.002% PMSF; details: both partners purified
[4] = biological target: B1; experiment: fluorescence polarisation; wild type ETR1 pre-incubated with 0.1 mM copper chloride, added to wild type AHP1-GFP; with 100 uM potassium cyanide; 50 mM Tris-HCl pH 7.5, 100 mM KCl, 0.1% beta-D-dodecylmaltoside, 0.002% PMSF; details: both partners purified
[5] = biological target: B1; experiment: fluorescence polarisation; control: wild type ETR1 and wild type AHP1-GFP with cyanide or ethephon but without the copper cofactor; same buffer; details: both partners purified

B1
stoichiometry N [1]: 2

B2: dansylated AHP1 (natural protein, Arabidopsis, UniProt Q9ZNV9 1-154, looked up)
chain: MDLVQKQKSLQDYTKSLFLEGILDSQFLQLQQLQDESNPDFVSQVVTLFFQDSDRILNDLSLSLDQQVVDFKKVDPHVHQLKGSSSSIGAQRVKNACVVFRSFCEQQNVEACHRCLQQVKQEYYLVKNRLETLFKLEQQIVASGGMIPAVELGF
modifications: dansyl label (dansyl chloride; typical ratio of protein-dansyl labeling 1:4), positions not given
notes: Theoretical molecular weight printed as 18.3 kDa; also called AHP1 (dansylated, without GFP); source: recombinant, purified from the bacterial host, then dansylated
binding result [2]: binds

B3: AHP1-GFP(S65T), wild type Arabidopsis histidine-containing phosphotransfer protein 1 fused to green fluorescent protein (natural protein, UniProt Q9ZNV9 1-154, looked up)
chain: MDLVQKQKSLQDYTKSLFLEGILDSQFLQLQQLQDESNPDFVSQVVTLFFQDSDRILNDLSLSLDQQVVDFKKVDPHVHQLKGSSSSIGAQRVKNACVVFRSFCEQQNVEACHRCLQQVKQEYYLVKNRLETLFKLEQQIVASGGMIPAVELGF
notes: AHP1, Arabidopsis histidine-containing phosphotransfer protein 1; Theoretical molecular weight of AHP1-GFP printed as 45.6 kDa; also called wild type AHP1-GFP
Kd [3]: 7.7 µM
Kd [4]: 9 µM
Kd [5]: 1.4 µM
